Reference: the supplement of paper PMC5998384

Tests used:
[1] = tested on: HeLa Kyoto; assay: melting temperature (median over replicates), in situ; higher = more thermally stable
[2] = tested on: HeLa Kyoto; assay: solubility change mitosis vs G1/S (difference of NP-40 vs SDS log2 ratios) (log2 ratio difference); higher = more soluble in mitosis
[3] = tested on: HeLa Kyoto; assay: thermal stability score vs G1/S (z-score of summed log2 fold changes over temperatures); higher = more thermally stable than in G1/S
[4] = tested on: HeLa Kyoto; assay: solubility in G1/S (NP-40 vs SDS abundance) (log2 ratio); higher = more soluble; details: cell cycle stage: G1/S
[5] = cell cycle stage: early G1 (4.5 h after nocodazole release)
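Wherever melting temperature (median over replicates), in situ is given: HeLa Kyoto cells synchronized by double thymidine or nocodazole block, proteins quantified by TMT10plex mass spectrometry, three independent biological replicates.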
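Wherever solubility change mitosis vs G1/S (difference of NP-40 vs SDS log2 ratios) is given: synchronized HeLa Kyoto cells (double thymidine block for G1/S, nocodazole release for mitosis), protein amounts in NP-40 versus SDS lysates quantified by mass spectrometry, three biological replicates.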
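Wherever solubility in G1/S (NP-40 vs SDS abundance) is given: HeLa Kyoto cells arrested at G1/S by double thymidine block, proteins quantified by TMT10plex mass spectrometry in mild NP-40 versus SDS extracts, three biological replicates.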
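Wherever thermal stability score vs G1/S (z-score of summed log2 fold changes over temperatures) is given: synchronized HeLa Kyoto cells, proteins quantified by TMT10plex mass spectrometry, three biological replicates, mitosis taken 0.5 h after nocodazole release, G1/S directly after double thymidine block.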

Sequence of CIAPIN1 (chain, as listed by the source): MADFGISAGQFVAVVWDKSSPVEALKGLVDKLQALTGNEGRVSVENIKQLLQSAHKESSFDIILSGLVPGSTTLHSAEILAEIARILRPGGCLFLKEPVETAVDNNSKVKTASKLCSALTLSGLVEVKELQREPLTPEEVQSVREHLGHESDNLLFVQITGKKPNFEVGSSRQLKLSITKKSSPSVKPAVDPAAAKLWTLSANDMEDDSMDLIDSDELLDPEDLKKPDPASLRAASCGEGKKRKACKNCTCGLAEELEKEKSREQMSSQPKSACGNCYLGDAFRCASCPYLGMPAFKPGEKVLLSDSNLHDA
Sequence of DHX9 (chain, as listed by the source): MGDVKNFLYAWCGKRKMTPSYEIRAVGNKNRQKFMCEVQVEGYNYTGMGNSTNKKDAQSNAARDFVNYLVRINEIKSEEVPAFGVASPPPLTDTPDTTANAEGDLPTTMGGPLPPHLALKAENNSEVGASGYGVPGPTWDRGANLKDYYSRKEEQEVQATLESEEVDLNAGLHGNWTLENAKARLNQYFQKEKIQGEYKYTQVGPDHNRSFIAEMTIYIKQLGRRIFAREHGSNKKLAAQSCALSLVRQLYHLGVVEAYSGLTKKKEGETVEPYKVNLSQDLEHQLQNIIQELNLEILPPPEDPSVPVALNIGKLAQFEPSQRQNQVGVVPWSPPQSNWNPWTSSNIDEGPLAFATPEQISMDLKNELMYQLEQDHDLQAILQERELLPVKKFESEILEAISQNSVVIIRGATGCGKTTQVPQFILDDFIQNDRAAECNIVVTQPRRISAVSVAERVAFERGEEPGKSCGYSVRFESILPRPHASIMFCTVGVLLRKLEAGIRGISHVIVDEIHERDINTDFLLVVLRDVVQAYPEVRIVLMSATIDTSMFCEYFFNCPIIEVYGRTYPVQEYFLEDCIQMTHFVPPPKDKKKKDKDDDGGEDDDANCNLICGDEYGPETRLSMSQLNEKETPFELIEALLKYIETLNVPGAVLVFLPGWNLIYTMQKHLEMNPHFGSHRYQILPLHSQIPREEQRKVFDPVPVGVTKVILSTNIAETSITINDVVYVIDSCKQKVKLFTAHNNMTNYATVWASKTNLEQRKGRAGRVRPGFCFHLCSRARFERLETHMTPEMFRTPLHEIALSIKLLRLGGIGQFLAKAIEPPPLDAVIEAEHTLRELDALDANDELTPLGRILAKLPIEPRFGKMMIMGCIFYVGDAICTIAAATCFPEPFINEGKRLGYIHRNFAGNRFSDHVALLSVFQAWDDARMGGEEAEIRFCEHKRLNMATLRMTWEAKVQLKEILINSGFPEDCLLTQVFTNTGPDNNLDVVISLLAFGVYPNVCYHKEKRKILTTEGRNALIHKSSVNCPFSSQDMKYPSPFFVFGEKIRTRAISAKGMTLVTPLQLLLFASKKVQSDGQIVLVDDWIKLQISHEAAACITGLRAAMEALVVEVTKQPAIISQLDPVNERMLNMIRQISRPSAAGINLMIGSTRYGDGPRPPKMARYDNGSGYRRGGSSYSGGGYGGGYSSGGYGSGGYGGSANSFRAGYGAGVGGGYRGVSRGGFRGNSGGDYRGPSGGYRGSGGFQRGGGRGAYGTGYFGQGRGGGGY
Sequence of FXR1 (chain, as listed by the source): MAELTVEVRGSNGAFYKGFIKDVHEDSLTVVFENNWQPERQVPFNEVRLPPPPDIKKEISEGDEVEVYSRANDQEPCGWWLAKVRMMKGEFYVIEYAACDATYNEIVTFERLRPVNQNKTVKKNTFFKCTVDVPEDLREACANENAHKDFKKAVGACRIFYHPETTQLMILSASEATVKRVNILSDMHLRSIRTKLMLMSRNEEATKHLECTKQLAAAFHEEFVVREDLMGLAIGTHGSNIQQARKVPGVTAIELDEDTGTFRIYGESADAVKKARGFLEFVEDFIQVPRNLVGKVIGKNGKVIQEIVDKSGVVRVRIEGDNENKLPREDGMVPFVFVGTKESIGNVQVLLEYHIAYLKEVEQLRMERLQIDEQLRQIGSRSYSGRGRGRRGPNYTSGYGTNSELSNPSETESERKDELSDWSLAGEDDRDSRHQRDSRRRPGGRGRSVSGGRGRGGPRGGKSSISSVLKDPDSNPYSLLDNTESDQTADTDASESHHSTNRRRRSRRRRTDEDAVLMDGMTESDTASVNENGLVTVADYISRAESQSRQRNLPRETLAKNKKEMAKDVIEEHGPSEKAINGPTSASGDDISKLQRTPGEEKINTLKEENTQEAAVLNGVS
Sequence of CREBBP (chain, as listed by the source): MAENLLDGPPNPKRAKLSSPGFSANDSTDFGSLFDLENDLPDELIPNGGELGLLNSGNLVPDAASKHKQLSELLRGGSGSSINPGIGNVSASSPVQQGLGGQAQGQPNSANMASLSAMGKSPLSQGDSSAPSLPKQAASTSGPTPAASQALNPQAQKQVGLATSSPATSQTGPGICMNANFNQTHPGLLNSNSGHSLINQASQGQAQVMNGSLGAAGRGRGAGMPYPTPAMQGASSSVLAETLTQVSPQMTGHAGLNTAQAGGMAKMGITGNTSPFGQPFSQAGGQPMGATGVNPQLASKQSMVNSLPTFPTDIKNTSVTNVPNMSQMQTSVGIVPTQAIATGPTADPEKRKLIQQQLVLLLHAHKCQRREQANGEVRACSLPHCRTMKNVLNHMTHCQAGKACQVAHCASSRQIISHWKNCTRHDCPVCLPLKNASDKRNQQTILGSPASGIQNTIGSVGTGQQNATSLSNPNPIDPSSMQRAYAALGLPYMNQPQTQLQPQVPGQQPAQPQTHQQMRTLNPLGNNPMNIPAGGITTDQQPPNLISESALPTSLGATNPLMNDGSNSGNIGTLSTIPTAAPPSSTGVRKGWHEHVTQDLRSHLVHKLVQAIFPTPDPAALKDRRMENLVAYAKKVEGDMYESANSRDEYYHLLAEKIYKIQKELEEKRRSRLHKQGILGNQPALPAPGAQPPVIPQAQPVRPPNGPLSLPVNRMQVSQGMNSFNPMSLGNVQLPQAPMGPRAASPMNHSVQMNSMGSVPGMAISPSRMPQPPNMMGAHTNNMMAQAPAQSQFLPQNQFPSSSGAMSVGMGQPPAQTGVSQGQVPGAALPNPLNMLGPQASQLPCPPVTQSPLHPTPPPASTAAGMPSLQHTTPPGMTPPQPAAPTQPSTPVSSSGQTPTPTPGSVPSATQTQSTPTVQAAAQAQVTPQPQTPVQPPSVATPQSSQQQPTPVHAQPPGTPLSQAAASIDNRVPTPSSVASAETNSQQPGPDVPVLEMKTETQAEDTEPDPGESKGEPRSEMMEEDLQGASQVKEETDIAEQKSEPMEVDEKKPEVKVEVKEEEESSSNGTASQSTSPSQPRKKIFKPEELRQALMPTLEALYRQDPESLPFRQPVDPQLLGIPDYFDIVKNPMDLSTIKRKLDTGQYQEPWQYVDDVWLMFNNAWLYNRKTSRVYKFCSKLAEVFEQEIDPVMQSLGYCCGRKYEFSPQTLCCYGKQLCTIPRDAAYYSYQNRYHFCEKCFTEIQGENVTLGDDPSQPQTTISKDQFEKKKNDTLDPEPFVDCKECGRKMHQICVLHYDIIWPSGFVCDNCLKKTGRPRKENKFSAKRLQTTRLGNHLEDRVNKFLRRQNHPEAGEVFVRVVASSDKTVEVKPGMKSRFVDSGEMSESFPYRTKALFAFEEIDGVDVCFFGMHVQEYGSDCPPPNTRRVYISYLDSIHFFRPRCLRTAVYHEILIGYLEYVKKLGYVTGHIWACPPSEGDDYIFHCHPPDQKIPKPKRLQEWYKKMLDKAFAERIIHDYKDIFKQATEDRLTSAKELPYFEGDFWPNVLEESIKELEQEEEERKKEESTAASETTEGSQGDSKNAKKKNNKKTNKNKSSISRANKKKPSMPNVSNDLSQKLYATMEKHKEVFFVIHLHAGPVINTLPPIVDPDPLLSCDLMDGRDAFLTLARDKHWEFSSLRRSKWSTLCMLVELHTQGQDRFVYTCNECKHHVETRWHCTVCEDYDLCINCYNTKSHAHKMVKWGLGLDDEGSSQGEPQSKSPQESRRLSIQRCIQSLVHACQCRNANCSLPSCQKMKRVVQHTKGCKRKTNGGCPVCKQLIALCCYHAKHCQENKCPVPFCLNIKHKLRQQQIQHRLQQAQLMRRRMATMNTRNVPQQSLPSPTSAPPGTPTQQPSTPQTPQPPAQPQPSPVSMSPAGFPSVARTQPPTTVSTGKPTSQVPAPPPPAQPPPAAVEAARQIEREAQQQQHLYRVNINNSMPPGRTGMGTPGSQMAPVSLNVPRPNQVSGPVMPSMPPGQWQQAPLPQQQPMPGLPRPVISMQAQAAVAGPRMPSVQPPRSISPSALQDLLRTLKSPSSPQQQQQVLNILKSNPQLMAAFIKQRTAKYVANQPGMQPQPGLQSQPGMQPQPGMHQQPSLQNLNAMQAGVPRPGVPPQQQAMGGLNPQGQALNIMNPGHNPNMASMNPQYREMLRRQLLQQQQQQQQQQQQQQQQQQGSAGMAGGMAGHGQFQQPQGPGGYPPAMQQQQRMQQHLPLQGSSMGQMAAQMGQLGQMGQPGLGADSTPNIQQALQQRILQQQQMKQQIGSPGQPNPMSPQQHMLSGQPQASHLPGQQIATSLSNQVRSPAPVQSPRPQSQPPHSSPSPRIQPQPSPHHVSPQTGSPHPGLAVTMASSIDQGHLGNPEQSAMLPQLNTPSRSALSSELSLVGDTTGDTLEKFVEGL
Sequence of C1GALT1 (chain, as listed by the source): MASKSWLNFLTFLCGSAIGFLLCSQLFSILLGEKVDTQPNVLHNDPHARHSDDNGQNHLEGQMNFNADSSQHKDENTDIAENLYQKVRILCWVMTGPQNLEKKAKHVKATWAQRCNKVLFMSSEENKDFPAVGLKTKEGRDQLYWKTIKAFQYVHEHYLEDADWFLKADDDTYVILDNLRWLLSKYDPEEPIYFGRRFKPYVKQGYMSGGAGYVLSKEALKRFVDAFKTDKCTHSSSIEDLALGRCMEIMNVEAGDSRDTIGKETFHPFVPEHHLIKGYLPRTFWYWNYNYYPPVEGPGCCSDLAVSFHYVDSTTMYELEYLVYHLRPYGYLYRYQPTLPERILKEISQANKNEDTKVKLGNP

Substance | melting temperature ([1]; cell cycle stage: G1/S) [°C] | melting temperature ([1]; cell cycle stage: mitosis) [°C] | solubility change mitosis (log2) [2] | thermal stability score [3, 5] | thermal stability score ([3]; cell cycle stage: mitosis) | solubility in G1/S (log2) [4]
ABCC1 | 54.5 | 53.7 | -0.0751 | -0.781 | -0.316 | 0.0337
AGO2 | 51.5 | 52.6 | 0.0495 | 2.34 | -0.539 | -0.133
AKAP13 | 50.6 | 49.6 | -0.118 | -0.167 | 1.43 | -0.0395
ALDH6A1 | 49.3 | 49.9 | -0.072 | 0.0292 | 0.822 | 0.179
ANKHD1 | 47.9 | 49.4 | -0.0108 | 0.478 | 1.9 | -0.0494
ASAP1 | 50.5 | 51.1 | -0.0861 | 0.472 | 0.143 | 0.0639
ATP5H | 54.9 | 52.9 | 0.46 | -5.39 | -6.92 | 0.0908
ATP7A | 51.7 | 51.1 | -0.147 | -0.475 | -0.996 | 0.00927
ATR | 50.7 | 50.5 | -0.097 | -0.0687 | 0.0624 | -0.368
BCOR | 47.6 | 50.1 | 0.38 | 0.368 | 1.08 | -0.157
BRD2 | 47.9 | 49.1 | 0.202 | 0.901 | 2.29 | -0.0635
BTAF1 | 50 | 50.1 | -0.118 | 0.553 | 1.71 | -0.142
C1GALT1 | 53.7 | 53.6 | -0.0544 | -1.2 | 0.982 | 0.222
C20ORF27 | 53.3 | 54.8 | -0.035 | -0.424 | -1.13 | 0.205
CC2D1A | 49.7 | 49.6 | -0.0691 | 0.931 | 0.615 | 0.298
CENPF | 48.9 | 49.7 | 0.109 | 2.12 | 0.418 | -0.00455
CIAPIN1 | 50.7 | 51.7 | -0.0971 | 0.785 | 3.13 | 0.471
CLTC | 51.4 | 50.6 | -0.171 | -1.37 | 1.15 | -0.168
COL4A2 | 53.4 | 55.3 | 0.0703 | 0.58 | -0.541 | 0.038
CREBBP | 52 | 53.2 | 0.0153 | -0.935 | -0.841 | -0.265
DHX9 | 50.5 | 50.5 | 0.211 | 1.02 | 2.63 | -0.671

Substance | melting temperature ([1]; cell cycle stage: G1/S) [°C] | melting temperature ([1]; cell cycle stage: mitosis) [°C] | solubility change mitosis (log2) [2] | thermal stability score [3, 5] | thermal stability score ([3]; cell cycle stage: mitosis) | solubility in G1/S (log2) [4]
DOCK9 | 51.4 | 50.6 | -0.156 | -0.162 | -0.395 | -0.203
DSP | 46.7 | 46.6 | -0.0238 | -3.13 | 0.479 | -0.687
EIF4G3 | 49.1 | 49.4 | -0.178 | 0.306 | 2.44 | 0.109
EPPK1 |  | 51.3 | 0.311 | -7.26 | -8.82 | -2.27
ERH | 52.5 | 51.6 | 0.912 | -4.51 | -3.17 | -2.12
FASN | 52.1 | 51.8 | -0.203 | -0.721 | 0.266 | -0.0375
FLNA | 50.2 | 50.3 | -0.105 | -0.0595 | 2.86 | -0.000309
FRYL | 49.7 | 52.1 | -0.116 | -0.342 | 0.441 | -0.239
FXR1 | 50.3 | 50.8 | 0.215 | -2.47 | 2.23 | -0.859
MTGGRFDFDDGGTYCGGWEEGKAHGHGICTGPKGQGEYSGSWSHGFEVVGGYTWPSGNTYQGYWAQGKRHGLGVETKGKWMYRGEWSHGFKGRYGVRQSLCTPARYEGTWSNGLQDGYGVETYGDGGTYQGQWAGGMRHGYGVRQSVPYGMATVIRSPLRTSLASLRSEQSNGSVLHDAAAAADSPAGTRGGFVLNFHADAELAGKKKGGLFRRGSLLGSMKLRKSESKSSISSKRSSVRSDAAMSRISSSDANSTISFGDVDCDFCPVEDHVDATTTETYMGEWKNDKRNGFGVSERSNGMKYEGEWANNKRHGYGCTVFPDGSKEEGKYKNNILVRGIRKQLIPIRHTKTREKVDRAIEGAQRAAAMARTKVEIANSRTAHARAKADAADQAALAARQECDIARAVARELSPDFYQPGPDYVKQRFQEGVDAKENPEEKVPEKPPTPKESPHFYRKGTTPPRSPEASPKHSHSPASSPKPLKKQNPSSGARLNQDKRSVADEQVTAIVNKPLMSKAPTKEAGAVVPQSKYSGRHHIPNPSNGELHSQYHGYYVKLNAPQHPPVDVEDGDGSSQSSSALVHKPSANKWSPSKSVTKPVAKESKAEPKAKKSELAIPKNPASNDSCPALEKEANSGPNSIMIVLVMLLNIGLAILFVHFLT [JPH1] |  | 51.7 | 0.108 |  |  | -0.419
MTTKDYPSLWGFGTTKTFKIPIEHLDFKYIEKCSDVKHLEKILCVLRSGEEGYYPELTEFCEKHLQALAPESRALRKDKPAATAASFTAEEWEKIDGDIKSWVSEIKKEEDKMHFHETETFPAMKDNLPPVRGSNSCLHVGKEKYSKRPTKKKTPRDYAEWDKFDVEKECLKIDEDYKEKTVIDKSHLSKIETRIDTAGLTEKEKDFLATREKEKGNEAFNSGDYEEAVMYYTRSISALPTVVAYNNRAQAEIKLQNWNSAFQDCEKVLELEPGNVKALLRRATTYKHQNKLREATEDLSKVLDVEPDNDLAKKTLSEVERDLKNSEAASETQTKGKRMVIQEIENSEDEEGKSGRKHEDGGGDKKPAEPAGAARAAQPCVMGNIQKKLTGKAEGGKRPARGAPQRGQTPEAGADKRSPRRASAAAAAGGGATGHPGGGQGAENPAGLKSQGNELFRSGQFAEAAGKYSAAIALLEPAGSEIADDLSILYSNRAACYLKEGNCSGCIQDCNRALELHPFSMKPLLRRAMAYETLEQYGKAYVDYKTVLQIDCGLQLANDSVNRLSRILMELDGPNWREKLSPIPAVPASVPLQAWHPAKEMISKQAGDSSSHRQQGITDEKTFKALKEEGNQCVNDKNYKDALSKYSECLKINNKECAIYTNRALCYLKLCQFEEAKQDCDQALQLADGNVKAFYRRALAHKGLKNYQKSLIDLNKVILLDPSIIEAKMELEEVTRLLNLKDKTAPFNKEKERRKIEIQEVNEGKEEPGRPAGEVSMGCLASEKGGKSSRSPEDPEKLPIAKPNNAYEFGQIINALSTRKDKEACAHLLAITAPKDLPMFLSNKLEGDTFLLLIQSLKNNLIEKDPSLVYQHLLYLSKAERFKMMLTLISKGQKELIEQLFEDLSDTPNNHFTLEDIQALKRQYEL [SPAG1] | 49.2 | 48.5 | -0.0757 |  |  | 0.51
MVGEMETKEKPKPTPDYLMQLMNDKKLMSSLPNFCGIFNHLERLLDEEISRVRKDMYNDTLNGSTEKRSAELPDAVGPIVQLQEKLYVPVKEYPDFNFVGRILGPRGLTAKQLEAETGCKIMVRGKGSMRDKKKEEQNRGKPNWEHLNEDLHVLITVEDAQNRAEIKLKRAVEEVKKLLVPAAEGEDSLKKMQLMELAILNGTYRDANIKSPALAFSLAATAQAAPRIITGPAPVLPPAALRTPTPAGPTIMPLIRQIQTAVMPNGTPHPTAAIVPPGPEAGLIYTPYEYPYTLAPATSILEYPIEPSGVLGAVATKVRRHDMRVHPYQRIVTADRAATGN [QKI] | 50.2 | 49.8 | -0.0775 |  |  | 0.613
MVNSSRVQPQQPGDAKRPPAPRAPDPGRLMAGCAAVGASLAAPGGLCEQRGLEIEMQRIRQAAARDPPAGAAASPSPPLSSCSRQAWSRDNPGFEAEEEEEEVEGEEGGMVVEMDVEWRPGSRRSAASSAVSSVGARSRGLGGYHGAGHPSGRRRRREDQGPPCPSPVGGGDPLHRHLPLEGQPPRVAWAERLVRGLRGLWGTRLMEESSTNREKYLKSVLRELVTYLLFLIVLCILTYGMMSSNVYYYTRMMSQLFLDTPVSKTEKTNFKTLSSMEDFWKFTEGSLLDGLYWKMQPSNQTEADNRSFIFYENLLLGVPRIRQLRVRNGSCSIPQDLRDEIKECYDVYSVSSEDRAPFGPRNGTAWIYTSEKDLNGSSHWGIIATYSGAGYYLDLSRTREETAAQVASLKKNVWLDRGTRATFIDFSVYNANINLFCVVRLLVEFPATGGVIPSWQFQPLKLIRYVTTFDFFLAACEIIFCFFIFYYVVEEILEIRIHKLHYFRSFWNCLDVVIVVLSVVAIGINIYRTSNVEVLLQFLEDQNTFPNFEHLAYWQIQFNNIAAVTVFFVWIKLFKFINFNRTMSQLSTTMSRCAKDLFGFAIMFFIIFLAYAQLAYLVFGTQVDDFSTFQECIFTQFRIILGDINFAEIEEANRVLGPIYFTTFVFFMFFILLNMFLAIINDTYSEVKSDLAQQKAEMELSDLIRKGYHKALVKLKLKKNTVDDISESLRQGGGKLNFDELRQDLKGKGHTDAEIEAIFTKYDQDGDQELTEHEHQQMRDDLEKEREDLDLDHSSLPRPMSSRSFPRSLDDSEEDDDEDSGHSSRRRGSISSGVSYEEFQVLVRRVDRMEHSIGSIVSKIDAVIVKLEIMERAKLKRREVLGRLLDGVAEDERLGRDSEIHREQMERLVREELERWESDDAASQISHGLGTPVGLNGQPRPRSSRPSSSQSTEGMEGAGGNGSSNVHV [PKD2] | 52.1 |  | -0.0995 |  |  | 0.00411
MVPGSEGPARAGSVVADVVFVIEGTANLGPYFEGLRKHYLLPAIEYFNGGPPAETDFGGDYGGTQYSLVVFNTVDCAPESYVQCHAPTSSAYEFVTWLDGIKFMGGGGESCSLIAEGLSTALQLFDDFKKMREQIGQTHRVCLLICNSPPYLLPAVESTTYSGCTTENLVQQIGERGIHFSIVSPRKLPALRLLFEKAAPPALLEPLQPPTDVSQDPRHMVLVRGLVLPVGGGSAPGPLQSKQPVPLPPAAPSGATLSAAPQQPLPPVPPQYQVPGNLSAAQVAAQNAVEAAKNQKAGLGPRFSPITPLQQAAPGVGPPFSQAPAPQLPPGPPGAPKPPPASQPSLVSTVAPGSGLAPTAQPGAPSMAGTVAPGGVSGPSPAQLGAPALGGQQSVSNKLLAWSGVLEWQEKPKPASVDANTKLTRSLPCQVYVNHGENLKTEQWPQKLIMQLIPQQLLTTLGPLFRNSRMVQFHFTNKDLESLKGLYRIMGNGFAGCVHFPHTAPCEVRVLMLLYSSKKKIFMGLIPYDQSGFVNGIRQVITNHKQVQQQKLEQQQRGMGGQQAPPGLGPILEDQARPSQNLLQLRPPQPQPQGTVGASGATGQPQPQGTAQPPPGAPQGPPGAASGPPPPGPILRPQNPGANPQLRSLLLNPPPPQTGVPPPQASLHHLQPPGAPALLPPPHQGLGQPQLGPPLLHPPPAQSWPAQLPPRAPLPGQMLLSGGPRGPVPQPGLQPSVMEDDILMDLI [MED25] | 52.1 | 50.9 | -0.172 |  |  | 0.612
MVTEQEVDAIGQTLVDPKQPLQARFRALFTLRGLGGPGAIAWISQAFDDDSALLKHELAYCLGQMQDARAIPMLVDVLQDTRQEPMVRHEAGEALGAIGDPEVLEILKQYSSDPVIEVAETCQLAVRRLEWLQQHGGEPAAGPYLSVDPAPPAEERDVGRLREALLDESRPLFERYRAMFALRNAGGEEAALALAEGLHCGSALFRHEVGYVLGQLQHEAAVPQLAAALARCTENPMVRHECAEALGAIARPACLAALQAHADDPERVVRESCEVALDMYEHETGRAFQYADGLEQLRGAPS [DOHH] | 50.3 | 50.6 | 0.308 |  |  | 0.137
MWVCSTLWRVRTPARQWRGLLPASGCHGPAASSYSASAEPARVRALVYGHHGDPAKVVELKNLELAAVRGSDVRVKMLAAPINPSDINMIQGNYGFLPELPAVGGNEGVAQVVAVGSNVTGLKPGDWVIPANAGLGTWRTEAVFSEEALIQVPSDIPLQSAATLGVNPCTAYRMLMDFEQLQPGDSVIQNASNSGVGQAVIQIAAALGLRTINVVRDRPDIQKLSDRLKSLGAEHVITEEELRRPEMKNFFKDMPQPRLALNCVGGKSSTELLRQLARGGTMVTYGGMAKQPVVASVSLLIFKDLKLRGFWLSQWKKDHSPDQFKELILTLCDLIRRGQLTAPACSQVPLQDYQSALEASMKPFISSKQILTM [MECR] | 55 | 54.1 | -0.0123 |  |  | 0.282
PTPRS | 51.6 |  | -0.268 |  |  | 0.148
RCOR3 | 49.1 | 50 | 0.101 |  |  | 0.375
USP32 | 50.4 | 50.3 | -0.0623 |  |  | -0.319
ZFHX3 | 48.7 | 49.3 | 0.302 |  |  | -0.242
